Data as given in PMC12756313.

Biological target: Protein A (coating of 10 μm silica microparticles) (UniProt P38507)
Assay: flow cytometry of beads; protein A coated on 10 μm silica particles, incubated with PE Mouse Anti-Human CD9 for 1 h, washed twice by centrifugation (200× g, 1 min); FACS Canto II, PE excitation 488 nm, filter 585/42; unlabeled proteinA-Silica particles used to set the gate

BD PE Mouse Anti-Human CD9 (Catalogue #341647, BD Biosciences) (antibody)
percent of beads positive for PE: 93%
